± gives the standard deviation of the averaged measurements.
Assay: total protein half-life in vivo (active degradation + dilution); higher = more stable protein
[1] = E. coli NCM3722 delta-clpP delta-lon delta-hslV, growth: N-lim chemostat, doubling time 6 h
[2] = E. coli NCM3722 delta-clpP, growth: N-lim chemostat, doubling time 6 h
[3] = E. coli NCM3722 delta-hslV, growth: N-lim chemostat, doubling time 6 h
[4] = wild type E. coli NCM3722, growth: C-lim chemostat, doubling time 3 h
[5] = wild type E. coli NCM3722, growth: C-lim chemostat, doubling time 6 h
[6] = wild type E. coli NCM3722, growth: P-lim chemostat, doubling time 12 h
[7] = E. coli NCM3722 delta-lon, growth: N-lim chemostat, doubling time 6 h
[8] = E. coli NCM3722 delta-smpB, growth: N-lim chemostat, doubling time 6 h
[9] = wild type E. coli NCM3722, growth: C-lim chemostat, doubling time 12 h
[10] = wild type E. coli NCM3722, growth: N-lim chemostat, doubling time 6 h
[11] = wild type E. coli NCM3722, growth: N-lim chemostat, doubling time 12 h
[12] = wild type E. coli NCM3722, growth: P-lim chemostat, doubling time 6 h

Row | Sequence | total protein half-life in vivo [1] | total protein half-life in vivo [2] | total protein half-life in vivo [3] | total protein half-life in vivo [4] | total protein half-life in vivo [5] | total protein half-life in vivo [6] | total protein half-life in vivo [7] | total protein half-life in vivo [8] | total protein half-life in vivo [9] | total protein half-life in vivo [10] | total protein half-life in vivo [11] | total protein half-life in vivo [12]
1 | MSIPFTRWPEEFARRYREKGYWQDLPLTDILTRHAASDSIAVIDGERQLSYRELNQAADNLACSLRRQGIKPGETALVQLGNVAELYITFFALLKLGVAPVLALFSHQRSELNAYASQIEPALLIADRQHALFSGDDFLNTFVTEHSSIRVVQLLNDSGEHNLQDAINHPAEDFTATPSPADEVAYFQLSGGTTGTPKLIPRTHNDYYYSVRRSVEICQFTQQTRYLCAIPAAHNYAMSSPGSLGVFLAGGTVVLAADPSATLCFPLIEKHQVNVTALVPPAVSLWLQALIEGESRAQLASLKLLQVGGARLSATLAARIPAEIGCQLQQVFGMAEGLVNYTRLDDSAEKIIHTQGYPMCPDDEVWVADAEGNPLPQGEVGRLMTRGPYTFRGYYKSPQHNASAFDANGFYCSGDLISIDPEGYITVQGREKDQINRGGEKIAAEEIENLLLRHPAVIYAALVSMEDELMGEKSCAYLVVKEPLRAVQVRRFLREQGIAEFKLPDRVECVDSLPLTAVGKVDKKQLRQWLASRASA | 5.38 h | 4.77 h | 5.82 h | 2.73 ± 0.086 h | 5.32 h | 10.7 h | – | – | – | – | – | –
2 | MSIQLNGINCFYGAHQALFDITLDCPQGETLVLLGPSGAGKSSLLRVLNLLEMPRSGTLNIAGNHFDFTKTPSDKAIRDLRRNVGMVFQQYNLWPHLTVQQNLIEAPCRVLGLSKDQALARAEKLLERLRLKPYSDRYPLHLSGGQQQRVAIARALMMEPQVLLFDEPTAALDPEITAQIVSIIRELAETNITQVIVTHEVEVARKTASRVVYMENGHIVEQGDASCFTEPQTEAFKNYLSH [P0AAF6] | 6.06 ± 0.7 h | 5.54 ± 0.19 h | 6.4 h | > 4 h | 6.19 ± 0.35 h | 11.6 ± 0.25 h | 5.57 ± 0.91 h | 4.77 ± 0.37 h | 11.9 h | 5.55 ± 0.86 h | 10.5 ± 0.48 h | 6.11 h
3 | MSIVVKNNIHWVGQRDWEVRDFHGTEYKTLRGSSYNSYLIREEKNVLIDTVDHKFSREFVQNLRNEIDLADIDYIVINHAEEDHAGALTELMAQIPDTPIYCTANAIDSINGHHHHPEWNFNVVKTGDTLDIGNGKQLIFVETPMLHWPDSMMTYLTGDAVLFSNDAFGQHYCDEHLFNDEVDQTELFEQCQRYYANILTPFSRLVTPKITEILGFNLPVDMIATSHGVVWRDNPTQIVELYLKWAADYQEDRITIFYDTMSNNTRMMADAIAQGIAETDPRVAVKIFNVARSDKNEILTNVFRSKGVLVGTSTMNNVMMPKIAGLVEEMTGLRFRNKRASAFGSHGWSGGAVDRLSTRLQDAGFEMSLSLKAKWRPDQDALKLCREHGREIARQWALAPLPQSTVNTVVKEETSATTTADLGPRMQCSVCQWIYDPAKGEPMQDVAPGTPWSEVPDNFLCPECSLGKDVFEELASEAK | 5.32 ± 0.78 h | 3.24 h | – | – | – | 10.1 ± 7.1 h | – | 1.57 h | – | 2.75 h | – | –
4 | MSIYKIPLPLNILEAARERITWTLNTLPRVCVSFSGGKDSGLMLHLTAELARQMGKKICVLFIDWEAQFSCTINYVQSLRELYTDVIEEFYWVALPLTTQNSLSQYQPEWQCWEPDVEWVRQPPQDAITDPDFFCFYQPGMTFEQFVREFAEWFSQKRPAAMMIGIRADESYNRFVAIASLNKQRFADDKPWTTAAPGGHSWYIYPIYDWKVADIWTWYANHQSLCNPLYNLMYQAGVPLRHMRICEPFGPEQRQGLWLYHVIEPDRWAAMCARVSGVKSGGIYAGHDNHFYGHRKILKPEHLDWQEYALLLLNSMPEKTAEHYRNKIAIYLHWYQKKGIEVPQTQQGDIGAKDIPSWRRICKVLLNNDYWCRALSFSPTKSKNYQRYNERIKGKRQEWGILCNND | 5.55 h | – | 6.21 h | – | – | – | 4.82 h | – | – | – | – | –
5 | MSKARRWVIIVLSLAVLVMIGINMAEKDDTAQVVVNNNDPTYKSEHTDTLVYNPEGALSYRLIAQHVEYYSDQAVSWFTQPVLTTFDKDKIPTWSVKADKAKLTNDRMLYLYGHVEVNALVPDSQLRRITTDNAQINLVTQDVTSEDLVTLYGTTFNSSGLKMRGNLRSKNAELIEKVRTSYEIQNKQTQP [P0ADV9] | 5.91 ± 0.18 h | 5.86 ± 0.15 h | 5.92 ± 0.41 h | – | 5.98 ± 0.17 h | 11.98 ± 0.014 h | 5.82 ± 0.13 h | 6.78 ± 0.24 h | 11.2 ± 1.9 h | 5.55 ± 0.17 h | 11.1 ± 0.99 h | 5.85 ± 0.087 h
6 | MSKATEQNDKLKRAIIISAVLHVILFAALIWSSFDENIEASAGGGGGSSIDAVMVDSGAVVEQYKRMQSQESSAKRSDEQRKMKEQQAAEELREKQAAEQERLKQLEKERLAAQEQKKQAEEAAKQAELKQKQAEEAAAKAAADAKAKAEADAKAAEEAAKKAAADAKKKAEAEAAKAAAEAQKKAEAAAAALKKKAEAAEAAAAEARKKAATEAAEKAKAEAEKKAAAEKAAADKKAAAEKAAADKKAAEKAAAEKAAADKKAAAEKAAADKKAAAAKAAAEKAAAAKAAAEADDIFGELSSGKNAPKTGGGAKGNNASPAGSGNTKNNGASGADINNYAGQIKSAIESKFYDASSYAGKTCTLRIKLAPDGMLLDIKPEGGDPALCQAALAAAKLAKIPKPPSQAVYEVFKNAPLDFKP | – | 6.28 ± 0.72 h | 6.23 ± 0.21 h | 3.23 ± 0.71 h | 6.022 ± 0.019 h | 12.3 ± 0.83 h | – | 5.79 ± 0.58 h | 11.6 ± 1.8 h | 5.85 ± 0.2 h | 12.7 ± 1.3 h | 5.49 ± 0.21 h
7 | MSKEHTTEHLRAELKSLSDTLEEVLSSSGEKSKEELSKIRSKAEQALKQSRYRLGETGDAIAKQTRVAAARADEYVRENPWTGVGIGAAIGVVLGVLLSRR | 5.56 ± 0.57 h | 6.08 ± 0.86 h | 5.45 ± 0.11 h | 2.81 ± 0.54 h | 5.64 ± 0.14 h | 10.7 ± 1.2 h | 6.206 ± 0.014 h | 4.81 ± 0.094 h | 9.35 ± 1.2 h | 5.47 ± 0.066 h | 9.88 ± 0.33 h | 5.55 ± 0.1 h
8 | MSKHDTDTSDQHAAKRRWLNAHEEGYHKAMGNRQVQMIAIGGAIGTGLFLGAGARLQMAGPALALVYLICGLFSFFILRALGELVLHRPSSGSFVSYAREFLGEKAAYVAGWMYFINWAMTGIVDITAVALYMHYWGAFGGVPQWVFALAALTIVGTMNMIGVKWFAEMEFWFALIKVLAIVTFLVVGTVFLGSGQPLDGNTTGFHLITDNGGFFPHGLLPALVLIQGVVFAFASIEMVGTAAGECKDPQTMVPKAINSVIWRIGLFYVGSVVLLVMLLPWSAYQAGQSPFVTFFSKLGVPYIGSIMNIVVLTAALSSLNSGLYCTGRILRSMAMGGSAPSFMAKMSRQHVPYAGILATLVVYVVGVFLNYLVPSRVFEIVLNFASLGIIASWAFIIVCQMRLRKAIKEGKAADVSFKLPGAPFTSWLTLLFLLSVLVLMAFDYPNGTYTIAALPIIGILLVIGWFGVRKRVAEIHSTAPVVEEDEEKQEIVFKPETAS | – | 4.52 h | 4.74 ± 0.064 h | > 4 h | – | – | 4.87 h | – | 11.4 h | 4.73 h | 10.3 h | –
9 | MSKIFDFVKPGVITGDDVQKVFQVAKENNFALPAVNCVGTDSINAVLETAAKVKAPVIVQFSNGGASFIAGKGVKSDVPQGAAILGAISGAHHVHQMAEHYGVPVILHTDHCAKKLLPWIDGLLDAGEKHFAATGKPLFSSHMIDLSEESLQENIEICSKYLERMSKIGMTLEIELGCTGGEEDGVDNSHMDASALYTQPEDVDYAYTELSKISPRFTIAASFGNVHGVYKPGNVVLTPTILRDSQEYVSKKHNLPHNSLNFVFHGGSGSTAQEIKDSVSYGVVKMNIDTDTQWATWEGVLNYYKANEAYLQGQLGNPKGEDQPNKKYYDPRVWLRAGQTSMIARLEKAFQELNAIDVL [P0AB71] | 5.42 ± 0.2 h | 5.14 ± 0.69 h | 5.06 ± 0.15 h | 3.19 ± 0.097 h | 5.67 ± 0.37 h | 12.19 ± 0.092 h | 5.07 ± 0.24 h | 4.73 ± 0.32 h | 9.46 ± 0.69 h | 4.87 ± 0.47 h | 8.4 ± 0.15 h | 5.84 ± 0.2 h

Source: the supplement of paper PMC11246515
